Test results published in US20220396631A1 (Novartis, published 2022).

Biological target: T1, CD58 Full ECD (human, UniProt P19256 30-215)
T1 construct: Recombinant, made in HEK293 cells
T1 sequence: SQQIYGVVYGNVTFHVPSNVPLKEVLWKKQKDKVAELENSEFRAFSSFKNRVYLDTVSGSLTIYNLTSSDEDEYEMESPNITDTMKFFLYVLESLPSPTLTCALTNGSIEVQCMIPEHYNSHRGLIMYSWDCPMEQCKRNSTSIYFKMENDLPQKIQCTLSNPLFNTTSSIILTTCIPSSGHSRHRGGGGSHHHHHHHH
Experiment: isothermal titration calorimetry; 100 uM CD2 titrated into 10 uM CD58 variant in HBS
Description: To ensure the binding affinity remained uncompromised by the additional of the stabilizing disulfide variance, isothermal calorimetry (ITC) was performed on the resulting recombinant CD58 proteins to determine their apparent KD and binding stoicheometry (n) to recombinant human CD2.
Briefly, recombinant human CD2 and recombinant human CD58 variants were dialyzed into HEPES-buffered saline (HBS). CD2 was diluted to final concentration of 100 μM, CD58 variants were diluted to 10 μM. CD2 was titrated into 10 μM of CD58 variants via multiple injections and ΔH (kcal/mole) determined using a MicroCal VP-ITC isothermal titration calorimeter (Malvern). Titrations of CD2 into HBS were used as a reference and KD and n determined from the resulting data.

- Kd: 570 nM
B1: Human CD2 (receptor)
chain: KEITNALETWGALGQDINLDIPSFQMSDDIDDIKWEKTSDKKKIAQFRKEKETFKEKDTYKLFKNGTLKIKHLKTDDQDIYKVSIYDTKGKNVLEKIFDLKIQERVSKPKISWTCINTTLTCEVMNGTDPELNLYQDGKHLKLSQRVITHKWTTSLSAKFKCTAGNKVSKESSVEPVSCPEKGLD
notes: also called recombinant human CD2; CD2 extracellular domain
